T1: TNFR1 (Homo sapiens, UniProt P19438)
T1 chain: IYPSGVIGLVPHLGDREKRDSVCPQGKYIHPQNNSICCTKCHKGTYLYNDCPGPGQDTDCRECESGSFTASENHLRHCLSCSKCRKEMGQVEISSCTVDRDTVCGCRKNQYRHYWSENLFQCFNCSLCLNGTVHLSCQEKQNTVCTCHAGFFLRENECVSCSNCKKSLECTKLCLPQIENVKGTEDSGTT

B1: L26F (designed binder)
chain: MTLQELLREEALRRAEAEAFRYALEFLAEKFPEQKEYLLDLAEEIESQIRSLSGVDVEDVRKFLDKEWAWVKELLAEHPAELAEVEAARAARLAELRAEVEAKVAA
B2: E95T (designed binder)
chain: MTLQELLREEALRRAEAEAFRYALELLAEKFPEQKEYLLDLAEEIESQIRSLSGVDVEDVRKFLDKEWAWVKELLAEHPAELAEVEAARAARLATLRAEVEAKVAA
B3: E101G (designed binder)
chain: MTLQELLREEALRRAEAEAFRYALELLAEKFPEQKEYLLDLAEEIESQIRSLSGVDVEDVRKFLDKEWAWVKELLAEHPAELAEVEAARAARLAELRAEVGAKVAA
B4: Q48G (designed binder)
chain: MTLQELLREEALRRAEAEAFRYALELLAEKFPEQKEYLLDLAEEIESGIRSLSGVDVEDVRKFLDKEWAWVKELLAEHPAELAEVEAARAARLAELRAEVEAKVAA
B5: R14P (designed binder)
chain: MTLQELLREEALRPAEAEAFRYALELLAEKFPEQKEYLLDLAEEIESQIRSLSGVDVEDVRKFLDKEWAWVKELLAEHPAELAEVEAARAARLAELRAEVEAKVAA
B6: W70P (designed binder)
chain: MTLQELLREEALRRAEAEAFRYALELLAEKFPEQKEYLLDLAEEIESQIRSLSGVDVEDVRKFLDKEWAPVKELLAEHPAELAEVEAARAARLAELRAEVEAKVAA
B7: V55P (designed binder)
chain: MTLQELLREEALRRAEAEAFRYALELLAEKFPEQKEYLLDLAEEIESQIRSLSGPDVEDVRKFLDKEWAWVKELLAEHPAELAEVEAARAARLAELRAEVEAKVAA
B8: Y22G (designed binder)
chain: MTLQELLREEALRRAEAEAFRGALELLAEKFPEQKEYLLDLAEEIESQIRSLSGVDVEDVRKFLDKEWAWVKELLAEHPAELAEVEAARAARLAELRAEVEAKVAA
B9: E99V (designed binder)
chain: MTLQELLREEALRRAEAEAFRYALELLAEKFPEQKEYLLDLAEEIESQIRSLSGVDVEDVRKFLDKEWAWVKELLAEHPAELAEVEAARAARLAELRAVVEAKVAA
B10: R97H (designed binder)
chain: MTLQELLREEALRRAEAEAFRYALELLAEKFPEQKEYLLDLAEEIESQIRSLSGVDVEDVRKFLDKEWAWVKELLAEHPAELAEVEAARAARLAELHAEVEAKVAA
B11: K35G (designed binder)
chain: MTLQELLREEALRRAEAEAFRYALELLAEKFPEQGEYLLDLAEEIESQIRSLSGVDVEDVRKFLDKEWAWVKELLAEHPAELAEVEAARAARLAELRAEVEAKVAA
B12: A83G (designed binder)
chain: MTLQELLREEALRRAEAEAFRYALELLAEKFPEQKEYLLDLAEEIESQIRSLSGVDVEDVRKFLDKEWAWVKELLAEHPAELGEVEAARAARLAELRAEVEAKVAA
B13: A80F (designed binder)
chain: MTLQELLREEALRRAEAEAFRYALELLAEKFPEQKEYLLDLAEEIESQIRSLSGVDVEDVRKFLDKEWAWVKELLAEHPFELAEVEAARAARLAELRAEVEAKVAA
B14: L75I (designed binder)
chain: MTLQELLREEALRRAEAEAFRYALELLAEKFPEQKEYLLDLAEEIESQIRSLSGVDVEDVRKFLDKEWAWVKELIAEHPAELAEVEAARAARLAELRAEVEAKVAA
B15: M1P (designed binder)
chain: PTLQELLREEALRRAEAEAFRYALELLAEKFPEQKEYLLDLAEEIESQIRSLSGVDVEDVRKFLDKEWAWVKELLAEHPAELAEVEAARAARLAELRAEVEAKVAA
B16: E46H (designed binder)
chain: MTLQELLREEALRRAEAEAFRYALELLAEKFPEQKEYLLDLAEEIHSQIRSLSGVDVEDVRKFLDKEWAWVKELLAEHPAELAEVEAARAARLAELRAEVEAKVAA
B17: S47C (designed binder)
chain: MTLQELLREEALRRAEAEAFRYALELLAEKFPEQKEYLLDLAEEIECQIRSLSGVDVEDVRKFLDKEWAWVKELLAEHPAELAEVEAARAARLAELRAEVEAKVAA
B18: L7Y (designed binder)
chain: MTLQELYREEALRRAEAEAFRYALELLAEKFPEQKEYLLDLAEEIESQIRSLSGVDVEDVRKFLDKEWAWVKELLAEHPAELAEVEAARAARLAELRAEVEAKVAA
B19: D65M (designed binder)
chain: MTLQELLREEALRRAEAEAFRYALELLAEKFPEQKEYLLDLAEEIESQIRSLSGVDVEDVRKFLMKEWAWVKELLAEHPAELAEVEAARAARLAELRAEVEAKVAA
B20: L39Y (designed binder)
chain: MTLQELLREEALRRAEAEAFRYALELLAEKFPEQKEYLYDLAEEIESQIRSLSGVDVEDVRKFLDKEWAWVKELLAEHPAELAEVEAARAARLAELRAEVEAKVAA
B21: L26D (designed binder)
chain: MTLQELLREEALRRAEAEAFRYALEDLAEKFPEQKEYLLDLAEEIESQIRSLSGVDVEDVRKFLDKEWAWVKELLAEHPAELAEVEAARAARLAELRAEVEAKVAA
B22: L26K (designed binder)
chain: MTLQELLREEALRRAEAEAFRYALEKLAEKFPEQKEYLLDLAEEIESQIRSLSGVDVEDVRKFLDKEWAWVKELLAEHPAELAEVEAARAARLAELRAEVEAKVAA
B23: E99S (designed binder)
chain: MTLQELLREEALRRAEAEAFRYALELLAEKFPEQKEYLLDLAEEIESQIRSLSGVDVEDVRKFLDKEWAWVKELLAEHPAELAEVEAARAARLAELRASVEAKVAA
B24: L6K (designed binder)
chain: MTLQEKLREEALRRAEAEAFRYALELLAEKFPEQKEYLLDLAEEIESQIRSLSGVDVEDVRKFLDKEWAWVKELLAEHPAELAEVEAARAARLAELRAEVEAKVAA
B25: S47L (designed binder)
chain: MTLQELLREEALRRAEAEAFRYALELLAEKFPEQKEYLLDLAEEIELQIRSLSGVDVEDVRKFLDKEWAWVKELLAEHPAELAEVEAARAARLAELRAEVEAKVAA
B26: V57K (designed binder)
chain: MTLQELLREEALRRAEAEAFRYALELLAEKFPEQKEYLLDLAEEIESQIRSLSGVDKEDVRKFLDKEWAWVKELLAEHPAELAEVEAARAARLAELRAEVEAKVAA
B27: R61Q (designed binder)
chain: MTLQELLREEALRRAEAEAFRYALELLAEKFPEQKEYLLDLAEEIESQIRSLSGVDVEDVQKFLDKEWAWVKELLAEHPAELAEVEAARAARLAELRAEVEAKVAA
B28: D59V (designed binder)
chain: MTLQELLREEALRRAEAEAFRYALELLAEKFPEQKEYLLDLAEEIESQIRSLSGVDVEVVRKFLDKEWAWVKELLAEHPAELAEVEAARAARLAELRAEVEAKVAA
B29: Q34V (designed binder)
chain: MTLQELLREEALRRAEAEAFRYALELLAEKFPEVKEYLLDLAEEIESQIRSLSGVDVEDVRKFLDKEWAWVKELLAEHPAELAEVEAARAARLAELRAEVEAKVAA
B30: E73T (designed binder)
chain: MTLQELLREEALRRAEAEAFRYALELLAEKFPEQKEYLLDLAEEIESQIRSLSGVDVEDVRKFLDKEWAWVKTLLAEHPAELAEVEAARAARLAELRAEVEAKVAA
B31: S51G (designed binder)
chain: MTLQELLREEALRRAEAEAFRYALELLAEKFPEQKEYLLDLAEEIESQIRGLSGVDVEDVRKFLDKEWAWVKELLAEHPAELAEVEAARAARLAELRAEVEAKVAA
B32: A17M (designed binder)
chain: MTLQELLREEALRRAEMEAFRYALELLAEKFPEQKEYLLDLAEEIESQIRSLSGVDVEDVRKFLDKEWAWVKELLAEHPAELAEVEAARAARLAELRAEVEAKVAA
B33: E29Q (designed binder)
chain: MTLQELLREEALRRAEAEAFRYALELLAQKFPEQKEYLLDLAEEIESQIRSLSGVDVEDVRKFLDKEWAWVKELLAEHPAELAEVEAARAARLAELRAEVEAKVAA
B34: L64P (designed binder)
chain: MTLQELLREEALRRAEAEAFRYALELLAEKFPEQKEYLLDLAEEIESQIRSLSGVDVEDVRKFPDKEWAWVKELLAEHPAELAEVEAARAARLAELRAEVEAKVAA

This test has as its target T1, TNFR1. Description: yeast display SC50.
As to B1, the “apparent Kd (screen)” value turned out to be 593 pM. For the molecule B2, the “apparent Kd (screen)” value is 539 pM. As to B3, the “apparent Kd (screen)” value stood at 490 pM. As for B4, the “apparent Kd (screen)” value is 718 pM.

For B5, the “apparent Kd (screen)” value came out at 490 pM. Consider B6, for which the “apparent Kd (screen)” value amounted to 11400 pM. As for B7, the “apparent Kd (screen)” value is 653 pM. Consider B8, for which the “apparent Kd (screen)” value worked out at 653 pM. B9: the “apparent Kd (screen)” value worked out at 446 pM. On to B10, for which the “apparent Kd (screen)” value came out at 593 pM. B11: the “apparent Kd (screen)” value was 490 pM. With B12, the “apparent Kd (screen)” value came to 539 pM. For B13, the “apparent Kd (screen)” value came to 539 pM. As to B14, the “apparent Kd (screen)” value came to 790 pM. With B15 the figure was 446 pM; with B16, 539 pM; with B17, 718 pM. In the case of B18, the “apparent Kd (screen)” value is 12500 pM. As to B19, the “apparent Kd (screen)” value was found to be 718 pM.

As for B20, the “apparent Kd (screen)” value turned out to be 1690 pM. For the molecule B21, the “apparent Kd (screen)” value was found to be 956 pM.

As for B22, the “apparent Kd (screen)” value was 718 pM. Under B23 stands 956 pM. As for B24, the “apparent Kd (screen)” value came out at 7070 pM. Under B25 stands 653 pM; under B26, 1160 pM. As for B27, the “apparent Kd (screen)” value stood at 539 pM.

As to B28, the “apparent Kd (screen)” value was 653 pM. For the molecule B29, the “apparent Kd (screen)” value turned out to be 405 pM. As for B30, the “apparent Kd (screen)” value was found to be 718 pM. Under B31 stands 1690 pM; under B32, 446 pM.

As to B33, the “apparent Kd (screen)” value came out at 539 pM. With B34, the “apparent Kd (screen)” value came out at 3990 pM.

The values are drawn from publication PMC12416549 (2024).
